According to the DeepSol protein solubility set:

Assay: soluble on expression in E. coli; label from the status in PepcDB or PDB records

Row | Sequence | soluble on expression in E. coli
1 | MGSDKIHHHHHHMMSTIYRHLSTARPALTKYATNAAVKSTTASSEASTLGALQYALSLDEPSHSWTKSQLKEIYHTPLLELTHAAQLQHRKWHDPTKVQLCTLMNIKSGGCSEDCKYCAQSSRNDTGLKAEKMVKVDEVIKEAEEAKRNGSTRFCLGAAWRDMKGRKSAMKRIQEMVTKVNDMGLETCVTLGMVDQDQAKQLKDAGLTAYNHNIDTSREHYSKVITTRTYDDRLQTIKNVQESGIKACTGGILGLGESEDDHIGFIYTLSNMSPHPESLPINRLVAIKGTPMAEELADPKSKKLQFDEILRTIATARIVMPKAIIRLAAGRYTMKETEQFVCFMAGCNSIFTGKKMLTTMCNGWDEDKAMLAKWGLQPMEAFKYDRS | not soluble
2 | MWKIELSDWTDDEFKHIVDFFTNQNILQPLETRRVRYLEMLLFNRSFMIFFPNIIDNHPELFMPCKARPNPPDVPIAVRVFTFEDRKMVMRSELFKAINMKYPNRKPIEYNDVNGFLYAMELKDVFKNFGDLWHDIDFLNTPINRTNQKAVPIITSTGDFCIPGFRAFSEIFYLMSLIMRVFQKVKINSMHVLDDYIKILVSQLEPFLKSQCFITTDAFQKIEQEMCNYWKKFENIPVKDIRDVKRFTLNDLKKELKYLGITEAFPDVLVYADLAFPKLLESVSQNKLETIDMFEAVAECTYCCLLDKYLELVQVWFPQFGSHKMFCSILPPDPVDIFLGVSSSHKDLRRYIKGEDKENMKVKDTSNPQVMKNQRENPKSISKPEGNNSDTPTESGNSSSSKVESSMANCTDCSGVRKEMKTVQNVLKDVQTQLTTMKHKSEKFEKNMTGSVERSKKAEQRLQEEKLDHVKIQVEAKKKLELKLEEVETWKKQVSALWNCKSDHEALNTKLSKCVEKGKKLKEINEKVSNSRDQLSTKVFELKLQLNRELETAETLKNERKDSAKLRNEVNQLKDQLEREREIAYGLQEEASKLRVGTGKDVKRQILESENAQLRQEKQRREMEKSSLLETKMILSRQNEEQHKLIQSLMDQNHTEEGPSNHEDENGSYRKVLWKHQKIKDLYRKGEQQREAEEMVNKLISLNQHPEVQHISFLELESFKKQISDYLHTVEKNIQKIKRNDDFTNLEPLPEPPKMSDKFMRLYWNEMNKQPSTSDLPSAELDDTDQL | not soluble
3 | MKPATYNTEAFDEWIRSRFVELNSQLEQLYYQQTDRANVQEVGTELKHTLESEGRELVKALLDEGNTDEGFDSAFDLLGNVGLYMAACRRHEITEPTRETTSPLLEASALAMHIGASIGVTPRFATAHLTTHNRAHNGIYKRFTDLPDEKLFVDYNTKGILAYKRASDALLKIQPLGISHPISHDLLRVTKQALQDVIESNQQLFNRLDTDRFFYCVRPYYKPYRVGSVVYRGANAGDFAGINVIDLTLGLCFANEASYSQMLVDKFLYMMPEDQQILRECMRRPNLMDDFLQAKGCIHQDWYQENLKLFIEVCELHGQTAIQHHNELVTKYIAEPSVSMEQQHLAKVTASGPPLHVLLASLERLRDRRAAVLRDDIRTRYYDLKKLKDSLRAAALEHHHHHH | soluble
4 | AIACTGCVQKQYPDRGNTCLENGSYLMNFVGCANCHQRDFVLISDRTMVNEDEEEIVTYLHMCKNCEHVIARHEYTFTVVDDYQEYTMLCMLCGKAEDSISVLPDDPRQTAPLF | soluble
5 | MLFEDEVGETPGGESYATVVNSRLSELLKRDRIVALLTNPDEVELIEQIECINYKPSISGTGGFVFFVHGDRKTYKILDTDRLALWEDTAATKDVRMSEETRLRFDQNNHLQVSKAKLALDHNGFTLYENTATLARCRRHNKKVVYVLRNGHQYGHGLIMYQYVKPGAHPDPLHQTVQLMTDAWFDILPPDIRMVVYYLLKYNHADETARIVHREHSVYLSRMKAGRPPPPSTSACTS | not soluble
6 | TWCPGCGNFAILKAFERASRRVIEEGFDIAVSSGIGCHGKISDYLSLPGFHVIHGRVPPFLTGLKLANPNLVVVGFSGDGDGLNEGVEHLVHAARRNTDITIILHNNGVFGLTTGQVTATSPRGRKSRSTPRGNPEYPLNPCHLMLVSGATFVARVFAGEQERLSEVFYNAMKHKGFSFVEVMQPCVSFNNFWEMRK | not soluble
7 | MSEDQMKQQLVIDQKAVKETLQQMLTSDQGKKFWESALKDPKFAESFAKGLQAEHEKMMKALMKDPDYQALMIDILKDPEMEKAMVDVLKSKEFRQHLQKVITETLNSPLYQAKIQDMLMKAAEKVQQGGEKQEEEGGGEGGEGEGEESTGNQQGGGG | not soluble
8 | MLETDLEARMQILRESGFQESQGDDDTFAQRAEWFYQGRPLLLSLCLDLYNGYVTLLGRSSHQTRLKPTTSLPNQLLQDDDDCISDIDSVSEVSSEVESTLSFQQMKDPTAVSEKVDELVSQLVTASLDKEILKHELLHKDQQFHEASKTIELLKKFVMLLEMEKEVAVEENANLGYKLTSLLEENRELATEALFMKNEAVGLARCVLKMRDDHFHKVCILQNRIYSLQASRNSEPVSDKVSYGCFGLDKHKTKKKKENKTEEKKPGFKWLKKLNTINLFTKCSLNPSAAAPSCCTFDLPY | not soluble
9 | MSLRMRVGKFDYLNNFLPYYFLNEKVEIVEANPREMASMLLSGRIDYAPVPAFFYLKNRERLRHYEFCVASEGKVLSVVVVSRKKELDDGSIAVTPHSLTSVNLLKILLAERGMKNMLVEVNTAKASEMLELCPHALVIGDEAIKARMIYKVVMDLGEEWYELTSLPAVFGISASLKETNAEEMDRKILMATEEGYRRFDEVVRAAEKAFKMPREFLEEYFRTLKFRLSSKERRGLDEFEKYCRDYEGHHHHHH | soluble
10 | MIKQIGTVAVYVEDQQKAKQFWTEKVGFDIAADHPMGPEASWLEVAPKGAETRLVIYPKAMMKGSEQMKASIVFECEDIFGTYEKMKTNGVEFLGEPNQMEWGTFVQFKDEDGNVFLLKE | not soluble
11 | MGSDKIHHHHHHMYTYKIGISKEEHDNFIKNSSQTNLLQSSSWAKVKDEWENERIGFYQDSKLVASASILIRPLPLGMTMFYIPRGPVMNYQDKDLVNFVLTSLKKFAKRKRALFIKFDPFILLNHHQIDEEAINNPQAQTIIDTLKHLGCEWLGQTSDMGETIQPRFQANIYAEGFSEANLSKKIRQSIRTAKNKGVSIRFGGYELLADFSDLMKKTEDRKSIHLRGIDYYRKLLDNYPQHSFITLASLNLKERLTELESQRKKAQNNLAKFGDNVKPSKIDNTKKEIERLSDEIAFLQEHLSQGKDTVPLSGTLSLEFGKTSENVYAGMDDEFRRYQAAIYTWFATANHAFERGSHWQNMGGIENDLSGGLYNFKSKFKPEIEEFIGEFNLPVSPLYKLANIAYTIRKKRRSKH | not soluble
12 | MSLEVGFAPAEFTVTDKDGRKVFLSDYKGKYVLIYHWGLCPGTFWVNPKITDLYQKYHEKGLEVLGFTRDDLLKSLQGSSEEFKKDERVQGLLSHPWTTVYTEDEGNGFIVKDLYFSGVPILMLISPDGITLARGYTKAYEEVKNLLDRNLGNKEGHHHHHH | soluble
13 | MFARSAQRFSDGDRLEVGGWPVRLKVDGRARRISLRVDRARSEIVALSPTPRRLNEAVAFAQEKAGWIAKQLAALPERMSLAPGGVLRLNDKPFRLEVGAGRARIDGDRIVAPDDANWGLKVIRLAKREALTVLTERTAIHAAALGRPVPSVAIADPKARWGSCRPATSRAPAAIRYSWRLILAPAVVADYVAAHECAHLIEANHGPRFWALCEQLIGDPTPHRAWLRAHAAELHAIGALEHHHHHH | not soluble
14 | MSLNIISVGVNHKTAPIEIRERIALSEVQNKELVTDLVSSGLASEAMVVSTCNRTELYVVPGMPEVNCDYLKDYIISYKNARNAVRPEHFFSRFYCGTARHLFEVSCAIDSLVLGEGQILGQVKNAYRIAAEVGTAGILLTRLCHTAFSVAKKVKTRTKLMEGAVSVSYAAVELAQKIFSNLSMKKVLLIGAGETGELAAKHMYAKNARNIVITNRTQSKAEALAEELGTNRVLPYESYKEHLHEFDIIITAVSTKEYILNAAEMQQSMAKRRLKPVIILDLGLPRNVDPEVGALQNMFLKDIDALKHIIDKNLERRRAELPKVKAIIDEELVAFGQWLNTLKVRPTIVDLQSKEGHHHHHH | soluble
15 | MDKADLYEKNQSRKDILNYYREEDKDFEQYLNFRENRKMLQQAFESGTLIRKQNYRARIHERMVEQPVTEKKELLRSR | not soluble
16 | MTGGTGADAASAGASSTRPELRGERCLPPAGPVKVTPDDPRYLNLKLRGANSRFNGEPDYIHLVGSTQQVADAVEETVRTGKRVAVRSGGHCFEDFVDNPDVKVIIDMSLLTEIAYDPSMNAFLIEPGNTLSEVYEKLYLGWNVTIPGGVCGGVGVGGHICGGGYGPLSRQFGSVVDYLYAVEVVVVNKQGKARVIVATRERDDPHHDLWWAHTGGGGGNFGVVTKYWMRVPEDVGRNPERLLPKPPATLLTSTVTFDWAGMTEAAFSRLLRNHGEWYERNSGPDSPYTGLWSQLMIGNEVPGMGESGFMMPIQVDATRPDARRLLDAHIEAVIDGVPPAEVPEPIEQRWLASTPGRGGRGPASKTKAGYLRKRLTDRQIQAVYENMTHMDGIDYGAVWLIGYGGKVNTVDPAATALPQRDAILKVNYITGWANPGNEAKHLTWVRKLYADVYAETGGVPVPNDVSDGAYINYPDSDLADPGLNTSGVPWHDLYYKGNHPRLRKVKAAYDPRNHFHHALSIRP | soluble
17 | MGSDKIHHHHHHATETEKDQRKFDYFFYEGLNLKNAGKFDAAYDAFNHCLEIDSTAAPVLYELSSFYVQLNRPEKAVEMLKRAVANSKDNFTYKMALASITRNLGMYGEAAEEYEELVRDYPEKEELNYYLADALTQAGEIGKAIEAYDALESVMGMNEAISMQKYKLYVQLEKPEEAFKEIEKLAAKYPMEARYQIVLGDLHLENGEMDKALACYQKANEIDPTDPYYIVSMANYYEAKGDKEAAEQQIRSALVNEKLDVETKVNILSRYILKLQQTKQGTENANHLFQTLLEQHPEDIDLKLMYGGLLMAQGKTEEAKFQFQLVTEMEPGNAGAWQQLLNLALKGEDIPEVIRICTACMELFPESPEYYFYLGIAYYQQQKYQEALNTYYAGLNIIPKENLPLKSDFYGQIGDIYYQMGQLDQAYKAYDEALKYNDKNVVVLNNYSYFLSLEKKDLKKAERMSAQCIKLEPDNATYLDTYAWIFFVQGNYTLAKIYIESALEKDKTKSAELVDHYGDILFMNGDKEKAVEQWKKAKEMGKDSEILNRKIAEQQYIEDENAK | not soluble
18 | MGSDKIHHHHHHMTNGRILFIREREFARSNVINYGMALVATAASKAFSVRAIDNNGLYRLYSHDDIAAEVEHFRPDVIGLSIITANALTSYETAEMLKRRFPDIPILAGGLHVSHQVGEALESGIDYVVRGEADLTIVPLLSALVEARDRGMPPDFTGIAGVSHGRGEAFVDGGNATLPLNLDEHSDVDFGLYDLGDFYRHPRDSLAIGSVLTQRGCPFRCTFCSDQYLSQSVRYRSIARSVDEIEDKLDRFGVNIFNIRDADFTMHNERVVEFCNELIRRGLHNRINLTIETDSFRVIPRDTLALMKQSGFSSIGFGIERLTPEIQRRIKKNISRSRIMENLKNCRELGFVISVHCLIGFSFDTMEDIAREQALFDELADQYVDIVSASIVVACPGTSEFSAVPPERSSWYLNPSAFPSRRPLYQVVRRFQYDPRHVPIYDFPPGMMERMMDFRDHFRKKTIGKRGRPLLWAYLLMLQIARLSEALYAASPRLERATFGWTLDWLETLNAIFTKLWAKRNDDRVNANHSCGQTPQP | not soluble
19 | SLRVMLPNKKALEIIRKYMKIYNGKNEKDIKERLIKELKEEHVLVETEDGTYTLKAEDEEEMMHSKVGALKEAIYKFAKPSKITDLSNPRVLDLCSGMGYNAIAALHYNKNAEIDMVEICEEVLFLTLFLDIPYKEHEIIKDKVREYFLNKIGIEYKSDYDNINLYVGDARKFIIKSDKKYNVVFHDAFSPKRDPTLYTYDFLKEIYKRMEDNGVLISYSSAIPFRSALVDCGFVISEKESVGRKRGITLAYKNPNFKPNRINEVDERVIALSVIALPYRDETLSLTKDKIIEDREERREKLKEKLIKIGKYLSTKQIKKGNIPEEILKIQKEDLNSSEIIKKMRLKFFKDANIFIL | soluble
